T1: chimeric bovine EC1-Fcgamma2R/human EC2-CD89 on HEK293F cells (bovine/human chimera)
T1 chain: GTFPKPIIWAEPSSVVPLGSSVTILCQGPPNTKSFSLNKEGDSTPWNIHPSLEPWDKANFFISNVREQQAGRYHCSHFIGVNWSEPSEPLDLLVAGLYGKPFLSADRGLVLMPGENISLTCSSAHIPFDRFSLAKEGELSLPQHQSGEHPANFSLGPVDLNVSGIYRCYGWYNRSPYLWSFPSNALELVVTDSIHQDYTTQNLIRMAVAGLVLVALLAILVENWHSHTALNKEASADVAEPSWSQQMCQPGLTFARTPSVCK

T2: membrane full-length cynomolgus monkey CD89 on HEK293F cells (cynomolgus monkey)
T2 construct: also called cynoCD89; cynomolgus EC1-CD89
T2 chain: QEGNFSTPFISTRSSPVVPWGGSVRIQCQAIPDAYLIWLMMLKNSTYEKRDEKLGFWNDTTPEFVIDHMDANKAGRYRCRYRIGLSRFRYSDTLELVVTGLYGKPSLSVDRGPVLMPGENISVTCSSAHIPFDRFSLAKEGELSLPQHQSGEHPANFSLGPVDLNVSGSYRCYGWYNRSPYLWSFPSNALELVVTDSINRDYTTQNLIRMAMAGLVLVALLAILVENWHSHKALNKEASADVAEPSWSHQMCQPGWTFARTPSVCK

T3: chimeric human/cynomolgus monkey CD89-III on HEK293F cells (human/cynomolgus chimera, UniProt P24071 22-287)
T3 construct: also called dGly72 - Gly96 human EC1-CD89; III (72-96)
T3 chain: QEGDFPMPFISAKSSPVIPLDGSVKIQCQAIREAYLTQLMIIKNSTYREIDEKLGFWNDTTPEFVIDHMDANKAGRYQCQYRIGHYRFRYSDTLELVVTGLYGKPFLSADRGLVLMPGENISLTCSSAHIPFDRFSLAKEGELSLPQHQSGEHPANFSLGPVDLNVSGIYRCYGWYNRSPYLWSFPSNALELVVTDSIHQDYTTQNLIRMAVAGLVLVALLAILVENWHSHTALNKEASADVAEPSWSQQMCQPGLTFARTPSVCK

T4: chimeric human/cynomolgus monkey CD89-hotspots on HEK293F cells (human/cynomolgus chimera, UniProt P24071 22-287)
T4 construct: also called dThr58, Gln59; dArg73, Arg74, Lys76
T4 chain: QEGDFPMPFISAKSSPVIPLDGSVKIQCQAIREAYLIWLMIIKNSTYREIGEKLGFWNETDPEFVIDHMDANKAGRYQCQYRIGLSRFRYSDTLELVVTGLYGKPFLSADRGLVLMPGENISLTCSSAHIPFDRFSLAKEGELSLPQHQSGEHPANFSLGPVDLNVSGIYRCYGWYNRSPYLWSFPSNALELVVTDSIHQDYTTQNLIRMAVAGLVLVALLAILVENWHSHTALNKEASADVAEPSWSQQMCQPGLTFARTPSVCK

T5: chimeric human/cynomolgus monkey CD89-I on HEK293F cells (human/cynomolgus chimera, UniProt P24071 22-287)
T5 construct: also called dGln22 - Lys46 human EC1-CD89; I (22-46)
T5 chain: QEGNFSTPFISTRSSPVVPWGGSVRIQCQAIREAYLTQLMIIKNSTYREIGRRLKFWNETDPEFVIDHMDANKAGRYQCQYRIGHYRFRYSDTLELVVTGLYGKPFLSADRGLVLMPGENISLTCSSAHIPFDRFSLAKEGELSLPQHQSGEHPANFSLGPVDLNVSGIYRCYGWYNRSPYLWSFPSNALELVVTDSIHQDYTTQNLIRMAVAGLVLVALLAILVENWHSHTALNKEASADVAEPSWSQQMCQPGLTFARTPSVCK

T6: chimeric human/cynomolgus monkey CD89-II on HEK293F cells (human/cynomolgus chimera, UniProt P24071 22-287)
T6 construct: also called dIle47 - Ile71 human EC1-CD89; II (47-71)
T6 chain: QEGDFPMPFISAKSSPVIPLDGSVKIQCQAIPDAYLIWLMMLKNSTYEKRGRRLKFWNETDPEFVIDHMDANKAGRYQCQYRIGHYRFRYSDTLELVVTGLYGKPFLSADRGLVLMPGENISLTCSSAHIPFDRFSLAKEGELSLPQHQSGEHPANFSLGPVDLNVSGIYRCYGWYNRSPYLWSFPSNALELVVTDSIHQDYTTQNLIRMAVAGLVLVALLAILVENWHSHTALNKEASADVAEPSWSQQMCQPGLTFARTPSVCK

T7: chimeric human/cynomolgus monkey CD89-IV on HEK293F cells (human/cynomolgus chimera, UniProt P24071 22-287)
T7 construct: also called dArg97 - Gly121 human EC1-CD89
T7 chain: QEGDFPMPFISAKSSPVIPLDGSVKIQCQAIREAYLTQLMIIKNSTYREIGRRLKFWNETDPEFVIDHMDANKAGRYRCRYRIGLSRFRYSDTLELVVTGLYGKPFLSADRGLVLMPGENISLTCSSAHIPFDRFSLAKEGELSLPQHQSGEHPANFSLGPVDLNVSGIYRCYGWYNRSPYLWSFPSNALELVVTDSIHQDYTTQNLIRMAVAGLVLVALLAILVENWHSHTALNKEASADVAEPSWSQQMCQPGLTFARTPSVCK


Key:
[1] = target: T8, membrane-bound full-length human CD89 on HEK293F cells (human, UniProt P24071 22-287); test: FACS HEK293F-huCD89
T8 construct: 2 or transient transfectants; also called membrane human CD89; human FcaRI
Procedure: After extensive washing in PBS/BSA/NaN₃, cells were subsequently incubated with 1:200 diluted PE-conjugated goat anti-human IgG Fcy-specific antibodies (Jackson ImmunoResearch) for 30 minutes at 4° C. After extensive washing in PBS/BSA/NaN₃, cells were fixed in 2% formaldehyde in PBS/BSA/NaN₃ for 30 minutes at 4° C.

[2] = target: T9, recombinant C-terminal polyhistidine-tagged human (extracellular) CD89 (Sino Biological) (human, UniProt P24071 22-227); test: ELISA, coated rhuCD89
T9 construct: extracellular domain; bought protein; also called rhuCD89; soluble monomeric rhuCD89
Procedure: (§1) After extensive washing with PBS/0.05% Tween 20, plates were blocked with PBS/0.05% Tween 20/1% BSA (Roche) for 1 hour at RT. Subsequently, plates were incubated with 50 µL titrated (in block buffer) purified mouse anti-human CD89 antibody/well for 1 hour at RT. […] After extensive washing in PBS/0.05% Tween 20, binding of antibodies on rhuCD89 was determined with 1:5,000 diluted horseradish peroxidase (HRP)-conjugated goat anti-mouse IgG Fcy-specific antibodies (Jackson ImmunoResearch) for 1 hour at RT, followed by a ready-to-use solution of TMB substrate (Invitrogen) for colorimetric detection.
After extensive washing with PBS/0.05% Tween 20, plates were blocked with PBS/0.05% Tween 20/1% BSA (Roche) for 1 hour at RT. […] After extensive washing in PBS/0.05% Tween 20, binding of antibodies on rhuCD89 was determined with 1:5,000 diluted horseradish peroxidase (HRP)-conjugated goat anti-human IgG Fcy-specific antibodies (Jackson ImmunoResearch) for 1 hour at RT, followed by a ready-to-use solution of TMB substrate (Invitrogen) for colorimetric detection.

[3] = target: T8, membrane-bound full-length human CD89 …; test: FACS on HEK293F-huCD89
Procedure: Then, 10 µL/tube (i.e., 0.1 x 10⁶ cells) of these cells were incubated with 100 µL titrated (in PBS/BSA/NaN₃) purified mouse anti-human CD89 antibody/tube for 30 minutes at 4° C. […] After extensive washing in PBS/BSA/NaN₃, cells were subsequently incubated with 1:200 diluted PE-conjugated goat anti-mouse IgG Fcy-specific antibodies (Jackson ImmunoResearch) for 30 minutes at 4° C. After extensive washing in PBS/BSA/NaN₃, cells were fixed in 2% formaldehyde in PBS/BSA/NaN₃ for 30 minutes at 4° C.

[4] = target: T9, recombinant C-terminal …; test: ELISA on coated rhuCD89
Procedure: as §1

[5] = target: T8, membrane-bound full-length human CD89 …; test: FACS HEK293F-huCD89, 10 ug/mL; competitor PE-A3
Procedure: (§2) Then, 10 µL/tube (i.e., 0.1 × 10⁶ cells) of these cells were incubated with or without 100 µL purified mouse anti-human CD89 antibody at 10 µg/mL (in PBS/BSA/NaN₃) for 30 minutes at 4° C. […] After extensive washing in PBS/BSA/NaN₃, cells were fixed in 2% formaldehyde in PBS/BSA/NaN₃ for 30 minutes at 4° C.

[6] = target: T8, membrane-bound full-length human CD89 …; test: FACS HEK293F-huCD89, 10 ug/mL; competitor PE-A59
Procedure: as §2

[7] = target: T8, membrane-bound full-length human CD89 …; test: FACS HEK293F-huCD89, 10 ug/mL; competitor PE-MIP8a
Procedure: as §2

[8] = target: T1, chimeric bovine EC1-Fcgamma2R/human …; test: FACS, transiently transfected HEK293F
Procedure: To this end, transient transfected HEK293F cells were put at 10 × 10⁶ cells/mL in ice-chilled phosphate-buffered saline containing 0.1% BSA (Sigma)/0.05% NaN₃ (PBS/BSA/NaN₃) supplemented with 50 µg/mL human IgGs (blocking Fcy receptors; Sigma) for 10 minutes at 4° C. Then, 10 µL/tube (i.e., 0.1 × 10⁶ cells) of these cells were incubated with or without 100 µL purified mouse anti-human CD89 antibody at 10 µg/mL (in PBS/BSA/NaN₃) for 30 minutes at 4° C. […] After extensive washing in PBS/BSA/NaN₃, cells were subsequently incubated with 1:200 diluted PE-conjugated goat anti-mouse IgG Fcy-specific antibodies (Jackson ImmunoResearch) for 30 minutes at 4° C. After extensive washing in PBS/BSA/NaN₃, cells were fixed in 2% formaldehyde in PBS/BSA/NaN₃ for 30 minutes at 4° C.

[9] = target: T2, membrane full-length cynomolgus monkey …; test: FACS, transiently transfected HEK293F
Procedure: (§3) To this end, transient transfected HEK293F cells were put at 10 x 10⁶ cells/mL in ice-chilled phosphate-buffered saline containing 0.1% BSA (Sigma)/0.05% NaN₃ (PBS/BSA/NaN₃) supplemented with 50 µg/mL human IgGs (blocking FcY receptors; Sigma) for 10 minutes at 4° C. Then, 10 µL/tube (i.e., 0.1 × 10⁶ cells) of these cells were incubated with or without 100 µL purified mouse anti-human CD89 antibody at 10 µg/mL (in PBS/BSA/NaN₃) for 30 minutes at 4° C. […] After extensive washing in PBS/BSA/NaN₃, cells were subsequently incubated with 1:200 diluted PE-conjugated goat anti-mouse IgG Fcy-specific antibodies (Jackson ImmunoResearch) for 30 minutes at 4° C. After extensive washing in PBS/BSA/NaN₃, cells were fixed in 2% formaldehyde in PBS/BSA/NaN₃ for 30 minutes at 4° C.

[10] = target: T3, chimeric human/cynomolgus monkey …; test: FACS, transiently transfected HEK293F
Procedure: (§4) To this end, transient transfected HEK293F cells were put at 10 × 10⁶ cells/mL in ice-chilled phosphate-buffered saline containing 0.1% BSA (Sigma)/0.05% NaN₃ (PBS/BSA/NaN₃) supplemented with 50 µg/mL human IgGs (blocking FcY receptors; Sigma) for 10 minutes at 4° C. Then, 10 µL/tube (i.e., 0.1 × 10⁶ cells) of these cells were incubated with or without 100 µL purified mouse anti-human CD89 antibody at 10 µg/mL (in PBS/BSA/NaN₃) for 30 minutes at 4° C. […] After extensive washing in PBS/BSA/NaN₃, cells were subsequently incubated with 1:200 diluted PE-conjugated goat anti-mouse IgG Fcy-specific antibodies (Jackson ImmunoResearch) for 30 minutes at 4° C. After extensive washing in PBS/BSA/NaN₃, cells were fixed in 2% formaldehyde in PBS/BSA/NaN₃ for 30 minutes at 4° C.

[11] = target: T4, chimeric human/cynomolgus monkey …; test: FACS, transiently transfected HEK293F
Procedure: as §4

[12] = target: T5, chimeric human/cynomolgus monkey CD89-I …; test: FACS, 10 µg/mL, transiently transfected HEK293F
Procedure: as §4

[13] = target: T6, chimeric human/cynomolgus monkey …; test: FACS, 10 µg/mL, transiently transfected HEK293F
Procedure: as §4

[14] = target: T7, chimeric human/cynomolgus monkey …; test: FACS, 10 µg/mL, transiently transfected HEK293F
Procedure: as §4

[15] = target: T8, membrane-bound full-length human CD89 …; test: FACS, antibody before serum IgA on HEK293F-huCD89; IgA detected
Procedure: Then, 10 µL/tube (i.e., 0.1 x 10⁶ cells) of these cells were incubated with 50 µL titrated (in PBS/BSA/NaN₃) purified mouse anti-human CD89 antibody/tube for 30 minutes at 4° C. […] After extensive washing in PBS/BSA/NaN₃, 1:200 diluted PE-conjugated streptavidin (Jackson ImmunoResearch) was added, and incubated for 30 minutes at 4° C. After extensive washing in PBS/BSA/NaN₃, cells were fixed in 2% formaldehyde in PBS/BSA/NaN₃ for 30 minutes at 4° C.

[16] = target: T9, recombinant C-terminal …; test: ELISA, antibody before serum IgA on coated rhuCD89; IgA detected
Procedure: After extensive washing with PBS/0.05% Tween 20, plates were blocked with PBS/0.05% Tween 20/1% BSA (Roche) for 1 hour at RT. Subsequently, plates were incubated with 25 µL titrated (in block buffer) purified mouse anti-human CD89 antibody/well for 30 minutes at RT. […] After extensive washing in PBS/0.05% Tween 20, 1:10,000 diluted HRP-conjugated streptavidin (Jackson ImmunoResearch) was added, and incubated for 1 hour at RT, followed by a ready-to-use solution of TMB substrate (Invitrogen) for colorimetric detection.

[17] = target: T8, membrane-bound full-length human CD89 …; test: FACS, antibody before secretory IgA on HEK293F-huCD89; IgA detected
Procedure: Then, 10 µL/tube (i.e., 0.1 x 10⁶ cells) of these cells were incubated with or without 50 µL titrated (in PBS/BSA/NaN₃) purified mouse anti-human CD89 antibody/tube for 30 minutes at 4° C. […] After extensive washing in PBS/BSA/NaN₃, 1:200 diluted PE-conjugated streptavidin (Jackson ImmunoResearch) was added, and incubated for 30 minutes at 4° C. After extensive washing in PBS/BSA/NaN₃, cells were fixed in 4% formaldehyde in PBS/BSA/NaN₃ for 30 minutes at 4° C.

[18] = target: T10, membrane human CD89 on ex vivo primary human neutrophilic granulocytes or monocytic U937 cells (human, UniProt P24071 22-287); test: cell-based or functional assay
[19] = target: T10, membrane human CD89 on ex vivo primary …; test: cell-based or functional assay; remark: listed apart in the source
[20] = target: T8, membrane-bound full-length human CD89 …; test: FACS, unlabelled antibody before A3-PE on HEK293F-huCD89
[21] = target: T8, membrane-bound full-length human CD89 …; test: FACS, unlabelled antibody before MIP8a-PE on HEK293F-huCD89
[22] = target: T2, membrane full-length cynomolgus monkey …; test: FACS, 10 µg/mL, transiently transfected HEK293F
Procedure: as §3

[23] = target: T3, chimeric human/cynomolgus monkey …; test: FACS, 10 µg/mL, transiently transfected HEK293F
Procedure: as §4

Row | EC50 [1] [µg/mL] | EC50 [2] [µg/mL] | EC50 (read off the curve) [3] [µg/mL] | EC50 (read off the curve) [4] [µg/mL] | % blocking of PE-A3 binding [5] [%] | % blocking of PE-A59 binding [6] [%] | % blocking of PE-MIP8a binding [7] [%] | binding result [8] | binding result [11] | binding result [12] | binding result [13] | binding result [14] | IC50 (read off the curve) [15] [µg/mL] | IC50 (read off the curve) [16] [µg/mL] | IC50 (read off the curve) [17] [µg/mL] | Binder | further results
1 | 0.714 | 0.052 | ~0.4 | ~0.03 | < 25 | < 25 | < 25 | no binding (tested: 10 µg/mL) | no binding (tested: 10 µg/mL) | binds | binds | binds | ~0.8 | ~0.09 | ~0.8 | CD89/IgA blocking mouse anti-human CD89-specific antibody 8F3 (antibody, V domains shown, also called mouse 8F3) VH: EVQLVESGGGLVKPGGSLKLSCAASGFTFSNYGMSWVRQTPDKRLEWVATMHSGGTYTYYPDNVKGRFTISRDNAKNNLYLQMSSLRSEDTAMYYCARETGLYDGLFDFWGQGTTLTVSS VL: DVQITQSPSYLAASPGETITINCRASKTISKYLAWYQEKPGKTNMLLIYSGSTLQSGVPSRFSGSGSGTDFTLTISSLEPEDLAMYYCQQHDEYPWTFGGGTKLEIK | binding result [9]: no binding (tested: 10 µg/mL); binding result [10]: no binding (tested: 10 µg/mL)
2 |  |  | ~0.2 | ~0.01 |  |  | > 90 |  |  |  |  |  | ~0.2 | ~0.03 | ~0.4 | CD89/IgA blocking mouse anti-human CD89-specific antibody 9H7 (antibody, V domains shown) VH: QIQLVQSGPELKKPGETVKISCKASGYTFKNYGMNWVKQAPGKGLKWMAWINTYTGEPTHTDDFKGRFVFSLETSASTAYLQINNLKNEDTATYFCARWGLGTTEEAARDYWGQGTTLTVSS VL: not shown | IC50 (read off the bars), binding of granulocytes to plate-bound serum IgA [Donor 1] [18]: ~0.9 µg/mL; IC50 (read off the bars), binding of granulocytes to plate-bound serum IgA [Donor 2] [19]: ~0.2 µg/mL; IC50 (read off the curve) [20]: ~0.4 µg/mL; IC50 (read off the curve) [21]: ~0.4 µg/mL
3 | 1.62 | 0.119 |  |  | < 25 | < 25 | < 25 | no binding (tested: 10 µg/mL) | no binding (tested: 10 µg/mL) | binds | binds | binds |  |  |  | CD89/IgA blocking mouse anti-human CD89-specific antibody 16D6 (antibody, V domains shown, also called 16D16 [sic]) VH: QVQLQQSGAELMKPGASVKISCKATGYTFSTYWIEWVKQRPGHGLEWIGEILPGSGSANYNEKFKGKATFTADTSSNTAYMQLSSLTFEDSAVYYCAKGFGSPYYYAMDYWGQGTSVTVSS VL: EIVLTQSPALMAASPGEKVTITCSVSSSISSSNLHWYQQKSETSPKPWIYGTSKLASGVPVRFSGSGSGTSYSLTISNMEAEDAATYYCQQWSSFPLTFGGGTKLEIK | binding result [22]: binds; binding result [23]: binds

From US20230242646A1 (JJP BIOLOGICS SP Z O O, published 2023)
